Experiments:
[1] = target: T1, Recombinant Human Fc gamma RIIB/C (CD32b/c) Protein (R&D systems) (human, UniProt P31994 46-217); experiment: SPR (Biacore T200) as in Test Example 17; RU at 4.7 µM conjugate
T1 construct: Bought protein; also called human FcγRIIb/c
T1 sequence (looked up): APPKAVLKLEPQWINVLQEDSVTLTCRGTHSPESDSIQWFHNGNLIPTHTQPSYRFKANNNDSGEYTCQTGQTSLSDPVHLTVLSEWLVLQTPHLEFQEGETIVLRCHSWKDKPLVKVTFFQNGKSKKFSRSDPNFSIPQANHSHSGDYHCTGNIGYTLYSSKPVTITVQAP

[2] = target: T2, Recombinant Human Fc gamma RI/CD64 Protein (R&D systems) (human, UniProt P12314 16-288); experiment: SPR (Biacore T200) as in Test Example 15; RU at 4.7 µM conjugate
T2 construct: His-tagged; also called human FcγRI; His-tagged human FcγRI
T2 sequence (P12314 16-288 limits assumed): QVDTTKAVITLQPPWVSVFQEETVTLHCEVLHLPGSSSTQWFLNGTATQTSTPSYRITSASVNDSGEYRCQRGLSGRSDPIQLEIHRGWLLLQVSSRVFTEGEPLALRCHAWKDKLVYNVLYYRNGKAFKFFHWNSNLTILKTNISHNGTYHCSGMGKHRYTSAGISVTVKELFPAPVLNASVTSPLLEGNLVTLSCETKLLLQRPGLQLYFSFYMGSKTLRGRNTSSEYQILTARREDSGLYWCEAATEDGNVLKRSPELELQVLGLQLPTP

[3] = target: T3, Recombinant Human Fc gammaRIIA/CD32a (R167) Protein (R&D systems) (human, UniProt P12318 36-218); experiment: SPR (Biacore T200) as in Test Example 16; RU at 4.7 µM conjugate
T3 construct: Bought protein; also called human FcγRIIa
T3 sequence (looked up): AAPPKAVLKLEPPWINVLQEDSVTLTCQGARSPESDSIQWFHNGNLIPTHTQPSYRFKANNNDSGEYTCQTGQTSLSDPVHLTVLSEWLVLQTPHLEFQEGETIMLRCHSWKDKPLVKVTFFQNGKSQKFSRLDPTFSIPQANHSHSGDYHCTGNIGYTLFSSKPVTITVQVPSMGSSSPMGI

[4] = target: T1, Recombinant Human Fc gamma RIIB/C …; experiment: SPR (Biacore T200); FcγRIIb/c immobilised directly on CM5, antibody as analyte 0.9-4.7 µM
[5] = target: T3, Recombinant Human Fc gammaRIIA/CD32a …; experiment: SPR (Biacore T200); FcγRIIa immobilised directly on CM5, antibody as analyte 0.9-4.7 µM
[6] = target: T2, Recombinant Human Fc gamma RI/CD64 …; experiment: SPR (Biacore T200); His-tagged FcγRI captured on anti-His chip, antibody as analyte 0.3-4.7 µM

Measured: binding result

B1: anti-EGFR antibody 1-CDN conjugate 1 (antibody, human IgG1, kappa, L234A L235A)
heavy: QVQLQESGPGLVKPSETLSLTCTVSGGSVSSGDYYWTWIRQSPGKGLEWIGHIYYSGNTNYNPSLKSRLTISIDTSKTQFSLKLSSVTAADTAIYYCVRDRVTGAFDIWGQGTMVTVSSASTKGPSVFPLAPSSKSTSGGTAALGCLVKDYFPEPVTVSWNSGALTSGVHTFPAVLQSSGLYSLSSVVTVPSSSLGTQTYICNVNHKPSNTKVDKRVEPKSCDKTHTCPPCPAPEAAGGPSVFLFPPKPKDTLMISRTPEVTCVVVGVSHEDPEVKFNWYVDGVEVHNAKTKPREEQYNSTYRVVSVLTVLHQDWLNGKEYKCKVSNKALPAPIEKTISKAKGQPREPQVYTLPPSREEMTKNQVSLTCLVKGFYPSDIAVEWESNGQPENNYKTTPPVLDSDGSFFLYSKLTVDKSRWQQGNVFSCSVMHEALHNHYTQKSLSLSPGK
light: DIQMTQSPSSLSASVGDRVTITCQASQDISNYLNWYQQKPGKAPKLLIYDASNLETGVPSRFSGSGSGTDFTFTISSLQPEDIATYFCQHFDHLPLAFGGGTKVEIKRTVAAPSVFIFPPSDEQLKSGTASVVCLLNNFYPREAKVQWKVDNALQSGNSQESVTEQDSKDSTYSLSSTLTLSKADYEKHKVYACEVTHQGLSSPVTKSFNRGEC
modifications: CDN drug-linker 17a conjugated through the remodeled N297 glycan (SG type); average number of conjugated drugs 3.7
notes: also called modified anti-EGFR antibody 1-CDN conjugate 1; antibody-drug conjugate 1
binds: [1] | [2] | [3]

B2: anti-EGFR antibody 1-CDN conjugate 2 (antibody, human IgG1, kappa, L234A L235A)
heavy: B1 heavy
light: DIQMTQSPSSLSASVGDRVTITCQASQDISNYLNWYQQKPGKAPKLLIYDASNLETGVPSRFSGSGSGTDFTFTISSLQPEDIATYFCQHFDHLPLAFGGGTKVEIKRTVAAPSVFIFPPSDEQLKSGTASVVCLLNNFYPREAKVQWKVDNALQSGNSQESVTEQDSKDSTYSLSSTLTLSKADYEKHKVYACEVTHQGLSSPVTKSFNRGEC
modifications: CDN drug-linker 17a conjugated through the remodeled N297 glycan (MSG1 type); average number of conjugated drugs 1.9
notes: also called modified anti-EGFR antibody 1-CDN conjugate 2; antibody-drug conjugate 2
binds: [1] | [2] | [3]

B3: modified anti-EGFR antibody 1 (antibody, human IgG1, kappa, L234A L235A)
heavy: B1 heavy
light: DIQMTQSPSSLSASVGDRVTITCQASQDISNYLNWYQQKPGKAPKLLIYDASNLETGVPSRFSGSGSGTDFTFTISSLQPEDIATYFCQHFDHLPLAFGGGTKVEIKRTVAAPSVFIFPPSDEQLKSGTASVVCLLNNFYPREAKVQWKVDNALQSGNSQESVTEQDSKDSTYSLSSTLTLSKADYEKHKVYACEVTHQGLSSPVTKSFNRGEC
notes: IgG1 with L234A/L235A/D265G (LALA-DG) introduced into anti-EGFR antibody A; also called LALA-DG; LALA-DG mutant anti-EGFR antibody
binds: [4] | [5] | [6]

B4: anti-EGFR antibody B (Vectibix) (antibody, human IgG2, kappa)
heavy: QVQLQESGPGLVKPSETLSLTCTVSGGSVSSGDYYWTWIRQSPGKGLEWIGHIYYSGNTNYNPSLKSRLTISIDTSKTQFSLKLSSVTAADTAIYYCVRDRVTGAFDIWGQGTMVTVSSASTKGPSVFPLAPCSRSTSESTAALGCLVKDYFPEPVTVSWNSGALTSGVHTFPAVLQSSGLYSLSSVVTVPSSNFGTQTYTCNVDHKPSNTKVDKTVERKCCVECPPCPAPPVAGPSVFLFPPKPKDTLMISRTPEVTCVVVDVSHEDPEVQFNWYVDGVEVHNAKTKPREEQFNSTFRVVSVLTVVHQDWLNGKEYKCKVSNKGLPAPIEKTISKTKGQPREPQVYTLPPSREEMTKNQVSLTCLVKGFYPSDIAVEWESNGQPENNYKTTPPMLDSDGSFFLYSKLTVDKSRWQQGNVFSCSVMHEALHNHYTQKSLSLSPGK
light: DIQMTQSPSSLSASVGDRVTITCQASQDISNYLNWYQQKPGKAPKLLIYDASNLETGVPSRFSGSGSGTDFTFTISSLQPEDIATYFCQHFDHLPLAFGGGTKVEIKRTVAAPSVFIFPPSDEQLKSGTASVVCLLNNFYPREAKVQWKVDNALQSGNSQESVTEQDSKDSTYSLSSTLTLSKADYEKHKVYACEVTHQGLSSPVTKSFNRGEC
notes: Commercial Vectibix (IgG2), buffer-exchanged into HBS-EP+; also called anti-EGFR antibody (IgG2); IgG2
binds: [4] | [5] | [6]

B5: anti-EGFR antibody B-CDN conjugate 2 (antibody, human IgG2, kappa)
heavy: B4 heavy
light: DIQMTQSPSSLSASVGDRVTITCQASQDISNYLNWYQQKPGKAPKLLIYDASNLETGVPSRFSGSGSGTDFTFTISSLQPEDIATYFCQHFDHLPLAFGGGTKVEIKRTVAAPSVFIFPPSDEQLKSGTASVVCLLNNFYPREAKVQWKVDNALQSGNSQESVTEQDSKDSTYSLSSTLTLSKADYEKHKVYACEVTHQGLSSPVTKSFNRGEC
modifications: CDN drug-linker 17a conjugated through the remodeled N297 glycan (MSG1 type); average number of conjugated drugs 1.9
notes: Antibody-drug conjugate of Vectibix (IgG2), DAR about 2; Light chain is inferred as for m1; also called antibody-drug conjugate 8
binds: [1] | [2] | [3]

Reference: US20260256934A1 (Daiichi Sankyo, published 2026)
